Assay results: paper PMC3024538

Biological target: HLA A*0201 α chain with β2m, recombinant, biotinylated
Assay: SPR

half-life of the pMHCI complex: 6 h
Substance: Melan-A/MART-1 26-35 peptide […]
